Assays:
[1] = molecular target: T1, ARHGAP6 peptide SAQITIPKDGQKRKKSLRKK (SEQ ID NO:156) (not fully specified)
T1 chain: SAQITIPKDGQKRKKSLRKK

[2] = molecular target: T2, CACNA1C peptide RGFLRSASLGRRASFHLE (SEQ ID NO:96) (not fully specified)
T2 chain: RGFLRSASLGRRASFHLE

[3] = molecular target: T3, EBNA1BP2 peptide KRPGKKGSNKRPGKR (SEQ ID NO:112) (not fully specified)
T3 chain: KRPGKKGSNKRPGKR

[4] = molecular target: T4, LIMK-2 peptide LRRRSLRRSNSISKSPGP (SEQ ID NO:121) (not fully specified)
T4 chain: LRRRSLRRSNSISKSPGP

[5] = molecular target: T5, MAP3K14 peptide WKGKRRSKARKKRK (SEQ ID NO:100) (not fully specified)
T5 chain: WKGKRRSKARKKRK

[6] = molecular target: T6, MARCKS peptide KKRFSFKKSFKLSGFSFKKN (SEQ ID NO:123) (not fully specified)
T6 chain: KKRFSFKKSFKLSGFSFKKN

[7] = molecular target: T7, MCM2 peptide VQRHRSMRKTFARYLSFRRD (SEQ ID NO:129) (not fully specified)
T7 chain: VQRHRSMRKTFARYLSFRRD

[8] = molecular target: T8, MGC2941 peptide RPTPGDGEKRSRIKKSKKRK (SEQ ID NO:139) (not fully specified)
T8 chain: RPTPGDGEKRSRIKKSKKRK

[9] = molecular target: T9, MLK3 peptide HVRRRRGTFKRSKLRARD (SEQ ID NO:76) (not fully specified)
T9 chain: HVRRRRGTFKRSKLRARD

[10] = molecular target: T10, Myt1 kinase peptide PPRTPGWHQLQPRRVSFRGE (SEQ ID NO:163) (not fully specified)
T10 chain: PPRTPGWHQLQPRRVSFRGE

[11] = molecular target: T11, NF1 peptide AGSFKRNSIKKIV (SEQ ID NO:102) (not fully specified)
T11 chain: AGSFKRNSIKKIV

[12] = molecular target: T12, NF1 peptide SQVQKQRSAGSFKRNSIKKI (SEQ ID NO:127) (not fully specified)
T12 chain: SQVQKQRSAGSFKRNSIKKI

[13] = molecular target: T13, NMDAR1 peptide RAITSTLASSFKRRR (SEQ ID NO:122) (not fully specified)
T13 chain: RAITSTLASSFKRRR

[14] = molecular target: T14, PARIS1 peptide EYLERRASRRRAV (SEQ ID NO:89) (not fully specified)
T14 chain: EYLERRASRRRAV

[15] = molecular target: T15, PARIS1 peptide RELEQLKAEYLERRASRRRA (SEQ ID NO:148) (not fully specified)
T15 chain: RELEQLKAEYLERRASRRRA

[16] = molecular target: T16, PKD1 peptide RVVQSVKHTKRKSSTVMK (SEQ ID NO:149) (not fully specified)
T16 chain: RVVQSVKHTKRKSSTVMK

[17] = molecular target: T17, PLEK peptide KFARKSTRRSIRLPE (SEQ ID NO:78) (not fully specified)
T17 chain: KFARKSTRRSIRLPE

[18] = molecular target: T18, PPP1R14A peptide QKRHARVTVKYDRRE (SEQ ID NO:107) (not fully specified)
T18 chain: QKRHARVTVKYDRRE

[19] = molecular target: T19, SYTL4 peptide RQGKRKTSIKRDTVNPL (SEQ ID NO:87) (not fully specified)
T19 chain: RQGKRKTSIKRDTVNPL

[20] = molecular target: T20, cyclophilin G peptide TEEKSKKRKKKHRKNSRKHK (SEQ ID NO:165) (not fully specified)
T20 chain: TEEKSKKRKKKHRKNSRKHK

[21] = molecular target: T21, dag kinase iota peptide NRKKKRTSFKRKA (SEQ ID NO:117) (not fully specified)
T21 chain: NRKKKRTSFKRKA

[22] = molecular target: T22, dag kinase iota peptide PQNSLKASNRKKKRTSFKRK (SEQ ID NO:151) (not fully specified)
T22 chain: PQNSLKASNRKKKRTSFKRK

[23] = molecular target: T23, p164-RhoGEF peptide PRLIRRGSKKRPAR (SEQ ID NO:124) (not fully specified)
T23 chain: PRLIRRGSKKRPAR

[24] = molecular target: T24, p164-RhoGEF peptide PRLIRRGSKKRPAR (SEQ ID NO:82) (not fully specified)
T24 chain: PRLIRRGSKKRPAR

[25] = molecular target: T25, phospholemman peptide EEGTFRSSIRRLSTRRR (SEQ ID NO:116) (not fully specified)
T25 chain: EEGTFRSSIRRLSTRRR

[26] = molecular target: T26, pleckstrin 1 peptide KAIKAIEGGQKFARKSTRRS (SEQ ID NO:126) (not fully specified)
T26 chain: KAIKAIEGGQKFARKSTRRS

[27] = molecular target: T27, slp4 peptide TYLLPDKSRQGKRKTSIKRD (SEQ ID NO:153) (not fully specified)
T27 chain: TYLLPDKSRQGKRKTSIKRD

[28] = molecular target: T28, splicing factor, arginine/serine-rich 4 peptide RSRSRSRSKSKDKRKSRKRS (SEQ ID NO:134) (not fully specified)
T28 chain: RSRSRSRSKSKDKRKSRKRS

[29] = molecular target: T29, titin peptide PFEVVWYKDKRQLRSSKKYK (SEQ ID NO:160) (not fully specified)
T29 chain: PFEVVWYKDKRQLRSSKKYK

[30] = molecular target: T30, ubiquitin specific protease 8 peptide RARRDSLKKIEIW (SEQ ID NO:136) (not fully specified)
T30 chain: RARRDSLKKIEIW

B1: PKC-epsilon (protein)
chain: MVVFNGLLKIKICEAVSLKPTAWSLRHAVGPRPQTFLLDPYIALNVDDSRIGQTATKQKTNSPAWHDEFVTDVCNGRKIELAVFHDAPIGYDDFVANCTIQFEELLQNGSRHFEDWIDLEPEGRVYVIIDLSGSSGEAPKDNEERVFRERMRPRKRQGAVRRRVHQVNGHKFMATYLRQPTYCSHCRDFIWGVIGKQGYQCQVCTCVVHKRCHELIITKCAGLKKQETPDQVGSQRFSVNMPHKFGIHNYKVPTFCDHCGSLLWGLLRQGLQCKVCKMNVHRRCETNVAPNCGVDARGIAKVLADLGVTPDKITNSGQRRKKLIAGAESPQPASGSSPSEEDRSKSAPTSPCDQEIKELENNIRKALSFDNRGEEHRAASSPDGQLMSPGENGEVRQGQAKRLGLDEFNFIKVLGKGSFGKVMLAELKGKDEVYAVKVLKKDVILQDDDVDCTMTEKRILALARKHPYLTQLYCCFQTKDRLFFVMEYVNGGDLMFQIQRSRKFDEPRSRFYAAEVTSALMFLHQHGVIYRDLKLDNILLDAEGHCKLADFGMCKEGILNGVTTTTFCGTPDYIAPEILQELEYGPSVDWWALGVLMYEMMAGQPPFEADNEDDLFESILHDDVLYPVWLSKEAVSILKAFMTKNPHKRLGCVASQNGEDAIKQHPFFKEIDWVLLEQKKIKPPFKPRIKTKRDVNNFDQDFTREEPVLTLVDEAIVKQINQEEFKGFSYFGEDLMP
- in vitro phosphorylation, 1 uM peptide (% of best substrate) [1]: 18
- in vitro phosphorylation (% of best substrate) [2]: 41
- in vitro phosphorylation (% of best substrate) [3]: 11
- in vitro phosphorylation, 1 uM peptide (% of best substrate) [4]: 49
- in vitro phosphorylation (% of best substrate) [5]: 13
- in vitro phosphorylation, 1 uM peptide (% of best substrate) [6]: 67
- in vitro phosphorylation, 1 uM peptide (% of best substrate) [7]: 65
- in vitro phosphorylation, 1 uM peptide (% of best substrate) [8]: 24
- in vitro phosphorylation (% of best substrate) [9]: 100
- in vitro phosphorylation, 1 uM peptide (% of best substrate) [10]: 14
- in vitro phosphorylation (% of best substrate) [11]: 14
- in vitro phosphorylation, 1 uM peptide (% of best substrate) [12]: 32
- in vitro phosphorylation, 1 uM peptide (% of best substrate) [13]: 72
- in vitro phosphorylation (% of best substrate) [14]: 45
- in vitro phosphorylation, 1 uM peptide (% of best substrate) [15]: 33
- in vitro phosphorylation, 1 uM peptide (% of best substrate) [16]: 27
- in vitro phosphorylation (% of best substrate) [17]: 84
- in vitro phosphorylation (% of best substrate) [18]: 7
- in vitro phosphorylation (% of best substrate) [19]: 31
- in vitro phosphorylation, 1 uM peptide (% of best substrate) [20]: 12
- in vitro phosphorylation, 1 uM peptide (% of best substrate) [21]: 67
- in vitro phosphorylation, 1 uM peptide (% of best substrate) [22]: 24
- in vitro phosphorylation, 1 uM peptide (% of best substrate) [23]: 49
- in vitro phosphorylation (% of best substrate) [24]: 72
- in vitro phosphorylation, 1 uM peptide (% of best substrate) [25]: 92
- in vitro phosphorylation, 1 uM peptide (% of best substrate) [26]: 69
- in vitro phosphorylation, 1 uM peptide (% of best substrate) [27]: 24
- in vitro phosphorylation, 1 uM peptide (% of best substrate) [28]: 32
- in vitro phosphorylation, 1 uM peptide (% of best substrate) [29]: 13
- in vitro phosphorylation, 1 uM peptide (% of best substrate) [30]: 33
